Experiment: soluble fraction after stress (log2 fold change); higher = more stays soluble; pooled small domains, quantitative proteomics
Settings: stress: 75 degC
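Further: 20 min heating vs room temperature control held 20 min.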

| Sequence | soluble fraction (log2) |
| --- | --- |
| HMYIDANTALLAKRIQAKNGFLPLSDKSTAEEIYAEFGISKKAFKKALGALYKERLVRIGDEGVVWV | -2.46 |
| HMYINVQNARTIASFRSSLWRMHRDFTNQGYITADGLKTFLEMGKLYEDAGGNDIYHSKLLPEITALEIKY | -2.84 |
| HMYKDVVVPNTVGDSEEKAYQTLSALGLVVNITYDEDASKSDRVVTSQNPTNKTIKEGESVNIVVNKQP | 0.573 |
| HMYKIDFAEGDRVIIKGGAFSGLRATVVSLHPEKGMAKIKVYMFGDRETLVDIEVSQLEKDK | -0.785 |
| HMYKTKVDIAYDMLMERITEGVYKPGEKLVITHISKELGISDIPVREAIRRLESEGYVKILPNQGAIVYD | -0.671 |
| HMYLGRKATLLSSISGEKMGNAEVLADGNLMSIYVKSLTGEPLSYGSTVLIIKHSEDQNFYLVQN | -3.54 |
| HMYLQKGISNGKVYLSIVHGYRDPVTKKVRRKTIRSLGYLEDLEKQYADPIKHFEAVVAKMNEEEALE | -1.88 |
| HMYLSNPTYRGDSLVDALTQIGVDASFASRRDLARKNGIENYTGSAKQNLELLQLLREGRLR | 0.402 |
| HMYLYADIYKKLEEKIKNMEVGEKLPSERAMVQEYGVSRNVLREALVLLSERGLIEIRPGKGSYVTNQQ | -1.17 |
| HMYNKKAYVNTNSDFLNVRSEASTESSVVDKLARGTEVNIVGNIQNGFYPIVLNEKNAWVSSDWISFEKPT | 0.053 |
| HMYNNDEIEKIQTMYNAIYQLNDIEKALIMLFLEDKSYKEIAEIMGISEGNARIKMMRTKDKLKNLISKN | -0.527 |
| HMYNNGYVNSDRVNFRKGASTNSDIYKVLDKNTSVTILDYEGDWSKVKINDTVGYVYTKYITAG | -0.368 |
| HMYNTDAMGVRIGELRRAKGLTQEAFAKTLGISAQAVSKWETGLGFPDISLLPMIAETLGTKIETLFGAE | -0.299 |
| HMYPATGTVVTAGGHLNMRSEPDRSGAILARIPNGTALTLTGKNGDWYAATYAGRSGYVSAQYISLS | -0.421 |
| HMYPDNSGDIQQLAQNIFRQENVSVDRDGLALISSRLGSDHAATRSEIEKLALLAGPGGTLTFETISEVLG | -0.145 |
| HMYPEDMMSLMRRALRLINHLESNRKDRHNSRQLELTESKIRRLARYYKGRGLIETEWAYKRDQLRLLV | -0.532 |
| HMYPIYDYISNMYLGKHLNAGMSLEEARGIMDEMLEKLLFDVPEEYHIDRDHFYEYLKKYYTERFSA | -1.73 |
| HMYPQLIGFKVIDEDKGEVGVVKEVSESMHQILLTVMKGKKEILIPLAEEFITKVNRHKKELFMVLPDG | -0.192 |
| HMYRLDVEISDEIKRDIDEETLSEIKGIIAEDPRPSYQNDETRIYRFTFAGREISFRVKDRTATVTEIL | -0.921 |

| Sequence | soluble fraction (log2) |
| --- | --- |
| HMYRPLYQQVYDFLVKQIAAGEWGPGESLPSEQALAGRLNVSQGTVRKALDALAADSLIDRRQGKGTYVAE | -0.236 |
| HMYRPQQEFTMRDLFQNNLNGSESASVRRDALGAELGIGYGNAKRFLERLNHYGVSREEFTAALEKLESE | -0.522 |
| HMYRSGGYTGAGKDDEEAGVVHRNEFVNTADAVRNPHVKRFLDVFNVAQKDGTIRMLNTSQILERARLDA | 0.115 |
| HMYRYGETPMVVVPDLIGRTVSDIYEEMNADFRLEKFGNGNTVISQAPKPGERVEQGSVIRVYLSGQDQ | 0.0556 |
| HMYSDERLQTFMELLPFFVEELSNKHVTRYNVWQNYREAYPNGYGRSQFFFHLGQNLEAKKK | -1.34 |
| HMYSIKEFSFEVTTPGQRLDLFLSEELIGQTRSSIQNLILKKYVTVNGQVSKASYKVKTGEFISVKIPV | -3.1 |
| HMYSINKTEFGERIKSAREELKMTQTQLAQLLKTSQTTVAKYEHGEQIPRADVLATISKATGKSTDWLLFG | -0.268 |
| HMYSKQRELIMEAVFKNRVHPTAEYVYKLLKKDHPELSLGTVYRNLNYWAENNMLKKINVPGGSDRFDGT | 0.0438 |
| HMYSLGPKERSIVSFIANRPGSRSGQIAKSLQIPLPTIKRILNGLVENKVIARHGIGAGTNYVVEDQA | -0.711 |
| HMYSMSAPMPGVILEIKVAPGDQVNKGDVVMVLEAMKMKNDLHAARTGTVESIDINSGEQVKYGQVLLRFV | -0.225 |
| HMYSQIGYGSSGSDVRKLQEILNGKGYNLSVDGQFGAKTKSAVRDYQSKNGLSVDGIVGVNTWGKLT | -0.0992 |
| HMYSYNKEEVGKRIKSIRQQKGLTQESFGELFGASKGNVATWEKGISLPNASRLREIADLVSITVEELLYG | -0.735 |
| HMYTLGEESDGTVRLLELYDIIKNKNEKIFVVDELDRSLHPNLTFNFVKKYLSIENKSQLIVSTH | 0.0677 |
| HMYVKKSSFVKKSLNNYEFKITDNTNDLLIFYKGMLPDLFREEQGIVVEGLIDKNNNIVASKV | 0.0603 |
| HMYVSGVPAITSIERVSTPGRRVYAGYTTVPKVIGGMGVSILTTSRGVMTDAEARRQKVGGELLAKV | 0.234 |
| HMYVTGSAIRRLREKRKLTQAQLAAALSVSDKTVSKWETARGLPDITLLEPLARALQVSVPELLSGEEV | -1.58 |
| HMYVVLYPGMARDEAVQVMNELQSRGIDYYEKNGNIYVPKTDENSLRMELANLGYPKTTNNYD | -0.0096 |
| HMYYHQIIGLDVVDENGNTLGKIKEILSPGANDVWVVKRKQKNDLLLPVIDDVIKDVDLAAGKVHVELLEG | -0.269 |

Reference: the domain aggregation screens of Martell et al. (2025)
